Source: patent publication US5962634A, “IgE antagonists” (Thomas Jefferson University, priority 1997, dated 1999)
Bridges are numbered along the chain shown (N, C = ends). Where no end group is shown, it is not given here. [ ]: non-standard residue; d: D form.

Assays:
FcεR1α (Homo sapiens) = experiment: Surface plasmon resonance (BIAcore biosensor) inhibition of IgE-Fc binding to immobilized soluble FcεR1α; conditions: peptide 2.5 mM; IgE-Fc 5 nM, association monitored for 6 minutes, 24° C.
Method: The kinetics of binding of IgE Fc to soluble FcεR1α were determined using a BIAcore biosensor (Pharmacia Biosensor AB, Uppsala, Sweden). The FcεR1α was immobilized via primary amine groups to a carboxymethylated dextran-coated CM5 sensor chip, at a concentration of 85 μg/ml in 10mM sodium acetate buffer pH 4.5, using N-hydroxy-succinimide and N-ethyl-N'-(3-[…])-carbodiimide.Free sites were blocked with 1M ethanolamine-hydrochloride pH 8.5.
The association of IgE-Fc at a concentration of 5nM was monitored for 6 minutes in the presence and absence of a derivative of the D amino acid peptide #1 at various concentrations (at 24° C.) The derivative of D amino acid peptide #1 is identical to D amino acid #1, which is described in Example 3, except it is biotinylated.

labelled myeloma IgE = experiment: competition: peptide titrated against 5 nM iodinated myeloma IgE binding to transfected CHO cells, gamma counting

FcεR1α (Homo sapiens), sequence (P01854 104-428 isoform P01854-1 limits assumed): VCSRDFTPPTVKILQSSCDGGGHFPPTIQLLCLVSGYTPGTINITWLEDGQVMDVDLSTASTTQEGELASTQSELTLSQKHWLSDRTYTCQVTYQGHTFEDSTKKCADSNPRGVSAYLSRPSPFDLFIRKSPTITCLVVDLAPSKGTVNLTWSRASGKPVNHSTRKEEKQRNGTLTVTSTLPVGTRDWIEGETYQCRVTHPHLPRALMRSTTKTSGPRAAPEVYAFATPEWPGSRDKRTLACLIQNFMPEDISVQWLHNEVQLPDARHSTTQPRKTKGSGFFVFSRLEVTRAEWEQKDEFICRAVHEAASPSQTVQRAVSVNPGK

| inhibition of IgE-Fc binding (FcεR1α (Homo sapiens)) | IC50 (labelled myeloma IgE) | Molecule |
| --- | --- | --- |
| virtually complete inhibition | – | derivative of D amino acid peptide #1: identical to D amino acid peptide #1, which is described in Example 3, except it is biotinylated (CIYYKDGEALKY[dC]; disulfide 1-13; also: biotinylated (site not given here)) |
| – | 5.14 µM | CIYYKDGEALKY[dC] (disulfide 1-13) [D amino acid peptide #1] |
